Source: patent US6861399B2, “Cleaning compositions containing human serine protease T” (Ortho-McNeil Pharmaceutical , Inc., priority 1999, dated 2005)
Non-standard residues stand in square brackets, D forms with d. *: point of attachment. pNA = O=[N+]([O-])c1ccc(N*)cc1; HHT = not defined here

The substances below were run against T1, activated protease T-HA6×HIS (Homo sapiens, UniProt Q9BQR3, D40A/M35I/Q39Y/Q42E/T41L) (assay: Amidolytic activity of activated protease T on chromogenic pNA substrates). Details: substrate at 500 uM; 10 mM Tris-HCl pH 7.8, 25 mM NaCl, 25 mM imidazole; pNA release over 120 minutes at 37° C., 405 nm; N.A. = No Activity.
T1 construct: made in house; host or cells: Sf9 insect cells (baculovirus)
T1 sequence (Q9BQR3 35-290 M35I/Q39Y/D40A/T41L/Q42E limits assumed): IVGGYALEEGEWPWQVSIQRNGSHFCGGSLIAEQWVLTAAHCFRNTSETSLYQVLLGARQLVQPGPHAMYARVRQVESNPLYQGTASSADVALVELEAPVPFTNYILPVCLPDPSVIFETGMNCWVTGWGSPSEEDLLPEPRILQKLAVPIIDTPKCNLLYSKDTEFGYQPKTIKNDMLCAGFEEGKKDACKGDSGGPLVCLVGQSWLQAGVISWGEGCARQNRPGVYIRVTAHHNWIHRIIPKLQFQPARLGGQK
Format: biochemical
Procedure: The conditioned medium from infected Sf9 cells was used to purify secreted recombinant PFEK-protease T-HA6×HIS zymogen. The medium was concentrated 5 to 10 fold using a Centriprep concentrator (Amicon Inc., Beverly, Mass.). 150 μl of a 50% Ni-NTA slurry (Qiagen, Valencia, Calif.) was added to 5 to 10 ml of the concentrated medium and mixed by shaking at 4° C. for 60 minutes. The zymogen-bound resin was washed 3 times with 1.5 ml of wash buffer (10 mM Tris-HCl (pH 8.0), 300 mM NaCl, and 15 mM imidazole), followed by with a 1.5 ml wash with ds H2O. Enterokinase cleavage was carried out by adding enterokinase (Novagen, Inc., Madison Wis.; or Sigma, St. Louis, Mo.) to the zymogen-bound Ni-NTA beads in a 150 ul volume at room temperature overnight with gentle shaking in a buffer containing 20 mM Tris-HCl (pH 7.4), 50 mM NaCl, and 2.0 mM CaCl2. The resin was then washed twice with 1.5 ml wash buffer. The activated protease T-HA6×HIS was eluted with elution buffer (20 mM Tris-HCl (pH 7.8), 250 mM NaCl, and 250 mM imidazole). Eluted protein concentration was determined by a Micro BCA Kit (Pierce, Rockford, Ill.) using bovine serum albumin as a standard. Amidolytic activities of the activated protease T-HA6×HIS was monitored by release of para-nitroaniline (pNA) from the synthetic substrates indicated in Table 1 and FIG. 6. […] Release of pNA was measured over 120 minutes at 37° C. on a micro-plate reader (Molecular Devices, Menlo Park, Calif.) with a 405 nm absorbance filter. The initial reaction rates (Vmax, mOD/min) were determined from plots of absorbance versus time using Softmax (Molecular Devices, Menlo Park, Calif.). […]
Amidolytic activities of the activated serine proteases are monitored by release of para-nitroaniline (pNA) from synthetic substrates that are commercially available (Bachem California Inc., Torrance, […].; American Diagnostica Inc., Greenwich, Conn.; Kabi Pharmacia Hepar Inc., Franklin, Ohio). […] Release of pNA is measured over 120 min at 37° C. on a micro-plate reader (Molecular Devices, Menlo Park, Calif.) with a 405 nm absorbance filter. […]

Substance	Specific Activity
H-D-Lys(CBO)-Pro-Arg-pNA (H-[dK](CBO)-Pro-Arg-pNA) [commercially available chromogenic substrate]	0.057 ± 0.022 nmole pNA produced/min/μg protein
H-D-Pro-HHT-Arg-pNA (H-[dP]-[HHT]-Arg-pNA; reading uncertain; also: printed as H-D-Pro-HHT-Arg-pNA) [commercially available chromogenic substrate]	0.010 ± 0.000 nmole pNA produced/min/μg protein
H-DL-Val-Leu-Arg-pNA (H-Val-Leu-Arg-pNA; also: DL-Val (racemic) at 1) [commercially available chromogenic substrate]	0.016 ± 0.003 nmole pNA produced/min/μg protein
